Source: patent US20210107983A1 (Boehringer Ingelheim, published 2021)

What was measured:
Cyno B7H6-His [1] = target: T1, Cyno B7H6-His (cynomolgus monkey); assay: ratio of SPR KDs cyno/human
T1 construct: also called CyB7H6; cyB7-H6
T1 chain: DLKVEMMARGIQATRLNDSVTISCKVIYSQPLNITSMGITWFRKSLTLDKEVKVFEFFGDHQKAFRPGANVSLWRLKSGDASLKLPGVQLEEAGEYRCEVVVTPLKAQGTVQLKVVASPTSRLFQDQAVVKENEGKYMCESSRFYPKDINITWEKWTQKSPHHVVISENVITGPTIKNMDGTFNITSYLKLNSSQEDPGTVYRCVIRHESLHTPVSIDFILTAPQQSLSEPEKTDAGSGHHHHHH
Procedure: (§1) About 700 RU of the B7H6/CD3 binding protein was captured on flow cell 2 of the Protein A/G surface for 60 s at a flow rate of 10 μL/min. The analytes HuB7H6, CyB7H6 and HuB7H1 were injected across both flow cells over captured B7H6/CD3 binding protein for 300 s at a flow rate of 30 μL/min with a dissociation of 1200 s. The concentrations of HuB7H6 and CyB7H6 were 0 nM, 6.25 nM, 12.5 nM, 25 nM, 50 nM and 100 nM. The concentrations of HuB7H1 were 0 nM and 1 μM. The surface was regenerated by injecting 10 mM glycine-HCl, pH 1.5 for 20 s at a flow rate of 30 μL/min across both flow cells.
(§2) The reference flow cell 1 (interactions with sensor surface) and blank (HBS-EP+ or 0 nM analyte) were subtracted from the raw data.
(§3) The B7H6/CD3 binding protein analyte was injected horizontally over the immobilized surface for 300 s at a flow rate of 30 μL/min with a dissociation of 600 s. The concentrations of the B7H6/CD3 binding protein used were 0 nM, 1.2 nM, 3.7 nM, 11.1 nM, 33.3 nM and 100 nM.

[2] = target: T2, chicken egg white lysozyme (chicken, UniProt P00698 19-147); assay: SPR, 1 µM binder over immobilized lysozyme
T2 construct: unrelated positively charged protein, amine-coupled to the chip; also called Lysozyme (positive)
T2 sequence (P00698 19-147): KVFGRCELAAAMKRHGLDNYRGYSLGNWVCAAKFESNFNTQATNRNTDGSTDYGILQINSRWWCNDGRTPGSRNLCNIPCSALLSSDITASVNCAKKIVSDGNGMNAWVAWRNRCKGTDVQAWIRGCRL
Procedure: (§4) The experiment was performed on a Biacore® T200 SPR system (GE Healthcare Life Sciences). The dilution, surface preparation, and binding experiments were performed at 25° C. in 1×HBS-EP buffer prepared from 10×HBS-EP. The flow rate for both the immobilization protocol and binding experiment was at 5 μL/min.
(§5) To prepare the surface for the non-specific binding experiment, chicken egg white lysozyme and trypsin inhibitor from Glycine max soybean were coupled manually to a Biacore® series S CM5 sensor chip (GE Healthcare sciences) with the surface density of 3000-5000 RU using the amine coupling kit according to the manufacture instructions. Samples were prepared at 1 μM in 1×HBS-EP buffer. The samples were injected over activated surfaces with a 10 min association and 15 min dissociation. The data was collected using Biacore® T200 Control Software version 2.0.1 and analyzed using Biacore® T200 Evaluation Software version 3.0 (GE Healthcare Life Sciences).

Human CD3 E+G HuFc-6xHis = target: T3, Human CD3 E+G HuFc-6xHis (human); assay: SPR, CD3E+G-hFc immobilized, binder analyte
T3 construct: also called HuCD3E+G-hFc; huCD3
T3 sequence (chain, as listed by the source limits assumed): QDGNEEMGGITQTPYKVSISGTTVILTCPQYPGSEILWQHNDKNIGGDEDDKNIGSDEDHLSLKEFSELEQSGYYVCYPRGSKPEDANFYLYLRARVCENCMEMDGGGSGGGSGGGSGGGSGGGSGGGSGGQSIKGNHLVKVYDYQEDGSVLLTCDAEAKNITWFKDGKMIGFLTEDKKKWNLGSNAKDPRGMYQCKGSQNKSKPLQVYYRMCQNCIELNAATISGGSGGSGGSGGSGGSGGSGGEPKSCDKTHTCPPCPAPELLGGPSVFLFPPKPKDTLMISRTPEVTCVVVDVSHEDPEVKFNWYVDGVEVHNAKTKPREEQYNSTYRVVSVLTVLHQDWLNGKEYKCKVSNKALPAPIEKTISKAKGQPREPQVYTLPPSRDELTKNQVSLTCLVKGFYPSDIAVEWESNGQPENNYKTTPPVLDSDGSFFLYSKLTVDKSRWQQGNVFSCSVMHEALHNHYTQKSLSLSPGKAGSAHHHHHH
Procedure: To determine the affinity of the B7H6/CD3 binding protein to human and cyno CD3E+G-hFc, the experiment was performed on a Bio-Rad ProteOn™ XPR36 instrument. Briefly, HuCD3E+G-hFc and CyCD3E+G were amine-coupled on a ProteOn™ GLM sensor chip (Bio-Rad) and the B7H6/CD3 binding protein was flowed over the immobilized surface. The running buffer for this experiment and all serial dilutions were prepared in HBS-EP+. The GLM sensor chip was normalized according to Bio-Rad's recommendations. The sensor chip was activated with an equal mixture of EDC/s-NHS in the horizontal direction for 300 s at a flow rate of 30 μL/min HuCD3E+G-hFc was immobilized in the vertical direction at 0.4 μg/mL, 0.2 μg/mL and 0.1 μg/mL in 10 mM acetate pH 4.5 to L1, L2 and L3, respectively, for 300 s at a flow rate of 30 μL/min resulting in about 100 RU of HuCD3E+G-hFc on L1, 40 RU of HuCD3E+G-hFc on L2 and 0 RU of HuCD3E+G-hFc on L3. CyCD3E+G-hFc was immobilized in the vertical direction at 0.4 μg/mL, 0.2 μg/mL and 0.1 μg/mL in 10 mM acetate pH 4.5 to L4, L5 and L6, respectively, for 300 s at a flow rate of 30 μL/min resulting in about 385 RU of […], 170 RU of CyCD3E+G-hFc on L5 and 50 RU of CyCD3E+G-hFc on L6. The sensor chip was deactivated with 1M ethanolamine-HCl in the horizontal direction for 300 s at a flow rate of 30 μL/min.
as §3
The interspot (interactions with sensor surface) and blank (HBS-EP+ or 0 nM analyte) were subtracted from the raw data.

Cyno B7H6-His [3] = target: T1, Cyno B7H6-His; assay: SPR, binder captured on Protein A/G, B7H6 analyte
Procedure: (§6) To determine the affinity of human and cyno B7H6 and human B7H1 to B7H6/CD3 binding proteins, the experiment was performed on a Biacore™ 8K instrument (GE Healthcare Life Sciences). Briefly, the B7H6/CD3 binding protein was captured via Protein A/G. The running buffer for this experiment and all serial dilutions were prepared in HBS-EP+. The CM5 sensor chip was activated with an equal mixture of EDC/NHS across both flow cells for 420 s at a flow rate of 10 μL/min and immobilized with recombinant Protein A/G (50 μg/ml in 10 mM NaOAc, pH 4.5) across all flow cells for 420 s at a flow rate of 10 μL/min resulting in about 2500 RU of Protein A/G on the surface. The sensor chip was deactivated with 1M ethanolamine-HCl across all flow cells for 420 s at a flow rate of 10 μL/min.
as §1, §2

Human B7H1 = target: T4, Human B7H1 (human, UniProt Q9NZQ7 20-239); assay: SPR, binder captured on Protein A/G, HuB7H1 analyte
T4 construct: also called HuB7H1; huB7-H1
T4 sequence (Q9NZQ7 other isoform, or with tags, fused parts or gaps limits assumed): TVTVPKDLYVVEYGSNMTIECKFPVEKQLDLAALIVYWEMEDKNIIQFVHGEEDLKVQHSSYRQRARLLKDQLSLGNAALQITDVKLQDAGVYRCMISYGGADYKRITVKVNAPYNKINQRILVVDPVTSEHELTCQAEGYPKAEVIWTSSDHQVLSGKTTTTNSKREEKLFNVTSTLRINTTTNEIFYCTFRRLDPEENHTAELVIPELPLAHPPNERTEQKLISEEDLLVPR
Procedure: as §6, §1, §2

[4] = target: T5, trypsin inhibitor from Glycine max soybean (Glycine max (soybean)); assay: SPR, 1 µM binder over immobilized trypsin inhibitor
T5 construct: unrelated negatively charged protein, amine-coupled to the chip
T5 sequence (P01070 25-205): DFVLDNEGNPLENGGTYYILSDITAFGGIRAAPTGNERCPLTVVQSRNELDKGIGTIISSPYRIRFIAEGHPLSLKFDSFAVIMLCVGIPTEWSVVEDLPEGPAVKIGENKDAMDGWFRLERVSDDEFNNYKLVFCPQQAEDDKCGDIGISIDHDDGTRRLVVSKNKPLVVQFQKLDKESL
Procedure: as §4, §5

Row | Binder | cy/hu B7-H6 (Cyno B7H6-His [1]) | Non-specific binding (RU) [2] | Kd (Human CD3 E+G HuFc-6xHis) | Kd (Cyno B7H6-His [3]) | binding result (Human B7H1) | Non-specific binding (RU) [4]
1 | B7H6#17/CD3#1 (bispecific antibody, human IgG1, kappa, lambda, L234A L235A, scFab-Fc heterodimer, one B7H6 chain and one CD3 chain) chain 1: DIQMTQSPSSLSASVGDRVTITCKASQNVGKYVAWYQQKPGKAPKSLIYSASNRYDGVPSRFSGSGSGTDFTLTISSLQPEDFTTYYCQQYISYPLTFGAGTKLEIKRTVAAPSVFIFPPSDEQLKSGTASVVCLLNNFYPREAKVQWKVDNALQSGNSQESVTEQDSKDSTYSLSSTLTLSKADYEKHKVYACEVTHQGLSSPVTKSFNRGECGGGGSEGKSSGSGSESKSTEGKSSGSGSESKSTGGGGSQVQLVQSGAEVKKPGASVKVSCKASGYTFTSYWMNWMRQAPGQGLEWMGGIYLSGDSTDYNEKFKGRVTMTVDTSTSTVYMELSSLRSEDTAVYYCTRRGDYFGDFWGQGTLVTVSSASTKGPSVFPLAPSSKSTSGGTAALGCLVKDYFPEPVTVSWNSGALTSGVHTFPAVLQSSGLYSLSSVVTVPSSSLGTQTYICNVNHKPSNTKVDKRVEPKSCDKTHTCPPCPAPEAAGGPSVFLFPPKPKDTLMISRTPEVTCVVVDVSHEDPEVKFNWYVDGVEVHNAKTKPREEQYNSTYRVVSVLTVLHQDWLNGKEYKCKVSNKALPAPIEKTISKAKGQPREPQVYTLPPSREEMTKNQVSLWCLVKGFYPSDIAVEWESNGQPENNYKTTPPVLDSDGSFFLYSKLTVDKSRWQQGNVFSCSVMHEALHNHYTQKSLSLSPG chain 2: EAVVTQEPSLTVSPGGTVTLTCRSSTGAVTTSNYANWVQEKPGQLPRGLIGGTNKRAPWVPARFSGSLLGGKAALTLSGAQPEDEAEYFCALWYSNLWVFGGGTKLTVLGQPKAAPSVTLFPPSSEELQANKATLVCLISDFYPGAVKVAWKADGSPVNTGVETTTPSKQSNNKYAASSYLSLTPEQWKSHRSYSCQVTHEGSTVEKTVAPAECSGGGGSEGKSSGSGSESKSTEGKSSGSGSESKSTGGGGSEVQLVESGGGLVQPGGSLKLSCAASGFTFNTYAMNWVRQAPGKGLEWVARIRSKYNNYATYYADSVKDRFTISRDDSKNTAYLQMNNLKTEDTAVYYCVRHGNFGNSYVSWFAYWGQGTLVTVSAASTKGPSVFPLAPSSKSTSGGTAALGCLVKDYFPEPVTVSWNSGALTSGVHTFPAVLQSSGLYSLSSVVTVPSSSLGTQTYICNVNHKPSNTKVDKRVEPKSCDKTHTCPPCPAPEAAGGPSVFLFPPKPKDTLMISRTPEVTCVVVDVSHEDPEVKFNWYVDGVEVHNAKTKPREEQYNSTYRVVSVLTVLHQDWLNGKEYKCKVSNKALPAPIEKTISKAKGQPREPQVYTLPPSREEMTKNQVSLSCAVKGFYPSDIAVEWESNGQPENNYKTTPPVLDSDGSFFLVSKLTVDKSRWQQGNVFSCSVMHEALHNRFTQKSLSLSPG | 1 | 15.3 RU | 13.5 nM | 8.4 nM | no binding (tested: 1 µM) | 88.4 RU
2 | B7H6#12/CD3#1 (bispecific antibody, human IgG1, kappa, lambda, L234A L235A, scFab-Fc heterodimer, one B7H6 chain and one CD3 chain) chain 1: DIQMTQSPSSLSASVGDRVTITCKASQNVGKYVAWYQQKPGKAPKSLIYSASNRYDGVPSRFSGSGSGTDFTLTISSLQPEDFTTYYCQQYISYPLTFGAGTKLEIKRTVAAPSVFIFPPSDEQLKSGTASVVCLLNNFYPREAKVQWKVDNALQSGNSQESVTEQDSKDSTYSLSSTLTLSKADYEKHKVYACEVTHQGLSSPVTKSFNRGECGGGGSEGKSSGSGSESKSTEGKSSGSGSESKSTGGGGSQVQLVQSGAEVKKPGASVKVSCKASGYTFTNYWMNWVKQAPGQGLEWMGGIYLNGDSTDYNEKFKGKATMTVDTSTSTVYMELSSLRSEDTAVYYCTRRGDYFGDFWGQGTLVTVSSASTKGPSVFPLAPSSKSTSGGTAALGCLVKDYFPEPVTVSWNSGALTSGVHTFPAVLQSSGLYSLSSVVTVPSSSLGTQTYICNVNHKPSNTKVDKRVEPKSCDKTHTCPPCPAPEAAGGPSVFLFPPKPKDTLMISRTPEVTCVVVDVSHEDPEVKFNWYVDGVEVHNAKTKPREEQYNSTYRVVSVLTVLHQDWLNGKEYKCKVSNKALPAPIEKTISKAKGQPREPQVYTLPPSREEMTKNQVSLWCLVKGFYPSDIAVEWESNGQPENNYKTTPPVLDSDGSFFLYSKLTVDKSRWQQGNVFSCSVMHEALHNHYTQKSLSLSPG chain 2: EAVVTQEPSLTVSPGGTVTLTCRSSTGAVTTSNYANWVQEKPGQLPRGLIGGTNKRAPWVPARFSGSLLGGKAALTLSGAQPEDEAEYFCALWYSNLWVFGGGTKLTVLGQPKAAPSVTLFPPSSEELQANKATLVCLISDFYPGAVKVAWKADGSPVNTGVETTTPSKQSNNKYAASSYLSLTPEQWKSHRSYSCQVTHEGSTVEKTVAPAECSGGGGSEGKSSGSGSESKSTEGKSSGSGSESKSTGGGGSEVQLVESGGGLVQPGGSLKLSCAASGFTFNTYAMNWVRQAPGKGLEWVARIRSKYNNYATYYADSVKDRFTISRDDSKNTAYLQMNNLKTEDTAVYYCVRHGNFGNSYVSWFAYWGQGTLVTVSAASTKGPSVFPLAPSSKSTSGGTAALGCLVKDYFPEPVTVSWNSGALTSGVHTFPAVLQSSGLYSLSSVVTVPSSSLGTQTYICNVNHKPSNTKVDKRVEPKSCDKTHTCPPCPAPEAAGGPSVFLFPPKPKDTLMISRTPEVTCVVVDVSHEDPEVKFNWYVDGVEVHNAKTKPREEQYNSTYRVVSVLTVLHQDWLNGKEYKCKVSNKALPAPIEKTISKAKGQPREPQVYTLPPSREEMTKNQVSLSCAVKGFYPSDIAVEWESNGQPENNYKTTPPVLDSDGSFFLVSKLTVDKSRWQQGNVFSCSVMHEALHNRFTQKSLSLSPG | 2.1 | 9.2 RU | 3.6 nM | 2.3 nM | no binding (tested: 1 µM) | 35.4 RU
